Assay results as given in the supplement of paper PMC10567573.

B1: FOXJ1 (parent)
chain: SAIYKWITDNFCYFRHADPTWQNS
B2: ADD1 (parent)
chain: FASDGDSGTCSPLRHSFQKQQREK

Variants of: B1
Test: protein stability index of a GFP-peptide fusion (GPS, HEK-293T) (PSI 1-6); higher = more stable
Conditions: c terminus: a fixed tail appended
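Note: lentivirally expressed fusions sorted by FACS into six bins by GFP to DsRed ratio, PSI derived from sequencing read proportions per bin multiplied by bin number.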

Protein stability index, by site and new letter:
C12: H 3.13 | W 3.99 | A 2.57 | L 3.4 | Q 1.81 | S 2.78 | Y 3.81 | G 2.61 | V 2.69 | K 2.81 | N 1.6 | F 2.67
N10: K 2.34 | F 1.81 | E 2.62 | M 2.89 | D 1.58 | Y 3.33 | R 2.2 | G 1.42 | W 2.06 | I 2.79 | T 2.05
S24: R 2.43 | M 2.55 | H 2.34 | F 3.32 | N 3.76 | K 2.17 | P 3.85 | E 2.97 | D 4.48
W6: A 1.66 | D 2.12 | C 2.1 | E 2.27 | G 1.67 | S 1.71 | Q 2.07 | N 2.71 | H 2.2 | V 1.49 | K 1.22 | P 2.13
P19: Q 3.21 | M 4.18 | R 3.65 | T 4.32 | D 1.69 | F 4.12 | A 3.17 | W 2.35 | G 2.04 | N 2.77 | S 2.63 | I 3.63 | L 1.54 | K 3.4 | V 3.02
D9: E 3.89 | I 4 | P 2.83 | A 2.74 | F 3.55 | T 3.43 | Q 2.67 | L 2.65 | C 4.21 | S 3.04
R15: F 2.57 | E 4.29 | S 2.76 | Y 2.33 | D 2.25 | C 3.16 | H 5.96 | L 2.95 | T 1.69 | P 2.53
D18: H 4.66 | E 3.65 | T 2.81 | V 2.75 | A 3.1 | W 2.55 | S 3.4 | G 2.24 | Q 2.86 | F 1.9 | L 2.74 | R 2.77 | M 3.77 | C 2.02
N23: M 2.75 | W 3.47 | D 3.65 | Q 3.42 | V 2.39 | Y 3.52 | G 4.27 | F 3.19 | P 3.02 | K 2.13 | T 3.31 | E 3.59 | C 2.97 | L 2.46 | A 2.99
W21: S 1.61 | K 3.58 | C 2.94 | V 3.94 | D 2.94 | E 3.54 | Q 2.9 | N 3.38 | M 3.42
A17: Q 2.7 | K 2.1 | P 3.54 | G 1.74 | C 3.02 | I 2.91 | H 3.05
A2: R 2.52 | Y 2.04 | W 2.53 | N 2.25 | C 3.04 | K 2.72 | G 2.87 | L 2.45 | P 3.53 | H 3.1 | E 1.44 | F 4.1
F11: L 3.24 | K 2.08 | G 1.96 | C 2.68 | N 2.05 | T 2.83 | W 2.53 | Q 2.21 | D 1.49
H16: G 2.72 | K 1.7 | P 3.62 | F 3.57 | L 4.65 | I 1.75
S1: L 2.55 | F 3.6 | C 3.86 | D 3.17 | P 2.9 | A 3.31 | W 3.8 | K 3.58 | V 2.43 | Y 2.05 | N 2.5 | M 3.02 | E 3.4 | G 3.32
Y4: Q 2.97 | A 1.47 | L 2.95 | I 2.52 | F 2.59 | D 2.24 | H 2.58 | T 1.52 | P 2.27 | W 2.97 | N 2.71
Y13: D 1.8 | T 2.96 | E 1.03 | R 1.8 | S 2.2 | A 3.53 | C 2.83 | M 2.87 | W 3.59
F14: E 2.23 | V 3.33 | P 2.04 | Y 2.97 | K 2.58 | M 2.21 | N 2.14 | C 3.92 | R 1.75 | W 2.73 | H 2.56 | G 2.33 | I 4.22
Q22: P 3.76 | C 3.38 | D 2.56 | N 4.82 | E 2.19
K5: Q 2.99 | F 2.91 | I 3.27 | A 2.97 | D 3.42 | G 3.71 | N 3.19 | H 3.79 | T 2.46 | Y 3.64 | W 2.78 | R 3.05 | L 2.73 | M 3
I3: K 1.84 | A 2.42 | V 3.81 | P 2.06 | D 2.83 | W 2.41 | H 1.98 | C 4.05 | N 1.6 | T 1.7 | M 3.21 | R 1.78 | Y 3.11
T20: C 3 | L 2.08 | W 4.37 | A 2.54 | R 3.92 | S 3.35 | P 3.38 | I 2.42 | Y 2.55 | K 2.23 | D 2.67
T8: G 2.05 | V 2.13 | R 2.51 | I 1.8 | E 2.79 | S 4.33 | Q 2.78 | M 3.27 | H 3.34 | P 1.86 | C 2.73
I7: A 2.02 | H 1.6 | L 2.9 | M 3.88 | E 2.3 | Y 1.86 | W 3.71 | N 1.93 | G 2.4 | R 1.79 | C 1.84 | K 1.74 | F 2.87 | D 2.27 | V 2.81

Variants of: B2
Test: as above
Conditions: c terminus: a fixed tail appended

Protein stability index of substitutions, site by site:
A2: K 4.66 | F 4.6 | L 3.7 | V 3.07 | T 4.39 | R 4.38 | C 3.54 | W 4.27 | I 2.84 | M 3.86 | Y 4.33 | G 4.11 | P 4.27 | E 5.18 | H 2.76 | D 5.17 | S 4.47 | Q 3.61 | N 4.79
S3: I 3.88 | V 4.09 | N 3.72 | F 1.92 | A 3.58 | Y 1.93 | R 3.25 | L 3.51 | W 2.72 | H 4.05 | G 3.98 | Q 4.5 | K 3.75 | P 2.37 | M 4.33 | T 3.99 | D 4.03 | C 3.02
F1: S 5.12 | R 5.07 | N 5.19 | W 5.13 | I 5.29 | P 5.76 | M 5.2 | D 4.91 | Y 4.07 | H 5.18 | Q 4.57 | C 4.17 | E 5.62 | K 4.22 | G 4.99 | T 5.55
D4: L 3.48 | K 2.51 | A 2.14 | C 2.72 | H 3.08 | E 4.37 | F 2.41 | G 2.07 | R 2.81 | N 2.99 | M 2.54 | I 2.54 | Q 3.14 | P 4.26
